This data set can be described thus: soluble on expression in E. coli; label from the status in PepcDB or PDB records.
With “MSLKKRRTIGFLVNDIDVSYSNLVYLMTKKAAEKYDCNLIVYEGRSFNNPSMADSQHQISYSFVDNTRLDGIIITSATIACFISDEEFVEFCKRYEGIPLVSLGIVVPHATSILVDNKPGMKSQVEHLIKDHGFKKIVYISGPPTNTDSVERLEAYCEALRENDIEVDDGLIFYGDFMAQSGYDIIKEIIKNGIEYDAVVCANDEMAFGAIKGIRDLKDAYNLDLTQKGVICGFDDSITSRLVKPSLTTVRQPIEEMCFYAVEAILKKIEGEKVEDVVKLPSVLVKRESCGEGHHHHHH”, the “soluble on expression in E. coli” value is “soluble”.

“RWETHVYRAVKDLLVGLGFTEVLQLVLTSPRLVEAAGFSSMAVEVLNPVQQEYSVLRPTLLITLLQTLRENQHRRKPVKVFEAGNAVYLEDGEPRDEEKLALGVLDEEAGFEDVQAPLYAVLRIMGVDFEVEEASHPMFMEGRTAAVKVGGERLGYIGEVKPEVLEAFGLEYPVAAAEISLEVLARWTS”: the “soluble on expression in E. coli” value is “soluble”.

On to “MSLTPRVNSGGAVVADAYGRPLKDLRIAVTPECNLDCFFCHMEGATESGPMRPGSWSPVLSVEDYDIIGEAASRLGVDSFKLTGGEPLIRGDVDKIVAVLARYGEVSMTTNGILLPLKASSLKRAGLARVNVSLHSISEEVYEKITRRRAVKLALKGVEAALKAGLRVKVNMVLLRGLNEGEFWRLLRLAEDLGFDLQVIEVHPAGRGRKVLSSFRRPIDVVEERLSSMAVAVETGRLHNRRVYRLPSGVRVYLVDPVENPVFCMGCYRVRLTWDGRLLPCIYWKGPYPSVAEALKRGGSREEKVWRVMKILLEANALRRPTYLFRLHDGQEPQAPSTGRGLRLTLPGKAKAERLAYSTLKAPLIEG”, for which the “soluble on expression in E. coli” value is given as “not soluble”.

“MGSDKIHHHHHHMKISETANKNHEELFPDHKSALKITDPELVEIFDNFAFDEVIQHGDLDTKTRLMVILGALIGSQTLSEYKVMLKGALNVGVTPIEVKEIVYQSVPYVGIAKAYDFINATNEILESRGVKLPLEGQSTTTPENRHEKGLEVQKSIFGEIIDKMYESSPKNQIHIQKYLSANCFGDYYTRTGLDIKTRELLTFCIILALGGCESQLKGHIVGNLNVGNDKKVLLDAVTQTLPYVGYPRTLNAIACLNEIIPE”: the “soluble on expression in E. coli” value is listed as “not soluble”.

Consider “MDQTYAEIENIYTLSPIIATTPKRYDVQYIQQKSRKNRNLIDHFDSRLPIEYRYPKKNSSATSSLSSAASRSLASKSLASSSSGYSSLGSTSSITTVFNGLSPFRSKSKNEEFDEQKAPSMRISEDVASIVIGENNSEVEEAVIDEVPEIKKRACCIECREKEIRQELDLESHQYANLQSLQKPQDPYVFLMTSMLTNLQKEDGGRQVVKVQQKIEKVLRLKPREPFNVEQKLVFDRQISTFASDVTIRLRAVSDAAPETYRDVSARFCEALHPGTPNSKGLKNIVKGVKNLLNF”, for which the “soluble on expression in E. coli” value is listed as “not soluble”.

With “MDSAREVSDGRLTVEGFSVASRAFADKWKIHNQSFPPWSWVPLINRTLLVSKKEEGYLSLEKIIILSSLEEEIPEDESLNVATDCLEKEETVDHTILVPTMENEAHYYDFHIVYSASYKVPVLYFRGYCSGGEPLALDVIKKDVPSCSVSLLLESKWTFITQEEHPYLNRPWFKLHPCGTEDWIKLLSQSSSSSGCQMPIVLYLVSWFSVVGQVVGLRIPLEMLN”, the “soluble on expression in E. coli” value is recorded as “soluble”.

Regarding “MKNDEVLLSIKNLKQYFNAGKKNEVRAIENISFDIYKGETLGLVGESGCGKSTTGKSIIKLNDITSGEILYEGIDIQKIRKRKDLLKFNKKIQMIFQDPYASLNPRLKVMDIVAEGIDIHHLATDKRDRKKRVYDLLETVGLSKEHANRYPHEFSGGQRQRIGIARVLAVEPEFIIADEPISALDVSIQAQVVNLLLKLQRERGITFLFIAHDLSMVKYISDRIAVMHFGKIVEIGPAEEIYQNPLHDYTKSLLSAIPQPDPESERSRKRFSYIDDEANNHLRQLHEIRPNHFVFSTEEEAAQLRENKLVTQN”, the “soluble on expression in E. coli” value was “not soluble”.

For “MGSDKIHHHHHHVELHQLKDLLTEKLQATSLIHATISAPRLKSNDLRRIKVKPILLRDTYAIQLEFQHERIIKHENLSIEEFIVRMDQFFDEFRQFLFRFETEEVQFQLSKKMKVSIKTTVKEPIQAELSHNRKKSHLLEDGVPVPFLIRLGVMTEEGQVKRQKYDKFKQINRFLEFVEDSIAVLPKGRTLRILDFGCGKSYLTFALYHYLKIVKGFDLNVTGLDLKKEVIEECAAIAADLGYDDLSFRVGDVHDYDQDTEVDLMVTLHACDVATDVALARAVDWNASVILSVPCCQKELNRQLDCSPLDVMLQHGLIQEKFASLATDSIRAELLTLVGYETQLLEFIDLENTPKNILIRAYKNPKRPTEEKIDRYIAFRELLHAKPYLERELSGRLGQISSKLVQ”, the “soluble on expression in E. coli” value is listed as “not soluble”.

For the sequence “GPGSMDTIEFLHTVGKLKETMRTGWVETGVHQPESVSDHMYRAALLCMMCPDSSLNRDRLVRMALCHDVGESIIGDISPKMGVPAAEKHKREKEAILHLRGLLPHDSPLEKELQELWEEYETQGTPEARFLRDIDLLEMVTQAHAYEKTHPELNFDSFYVSGEKIKHPWVRSIYDNLVSTRPSRKS”, the “soluble on expression in E. coli” value was “soluble”.

Take “MNSLFVDNTVFITRLKAGHIGRLVQALFEEWHGFEPWSSVDKIHAYYGRCLKDDELPLAFAAVDDSGILLGSAAVKRHDMESFPRYEYWLGDVFVLPEYRGKGIGRRLVAHCIGAARSLGIKFLYLYTPDVQIFYESFGWVVVGRHFHNGEWVTVMRLDVDKV”: the “soluble on expression in E. coli” value is “not soluble”.

As for “MSLTAAVRHSDVLVVGAGSAGSVVAERLSMDSSCVVTVLEAGPGLADPGLLAQTANGLQLPIGAGSPLVERYRTRLTDRPVRHLPIVRGATVGGSGAINGGYFCRGLPSDFDRASIPGWAWSDVLEHFRAIETDLDFETPVHGRSGPIPVRRTHEMTGITESFMAAAEDAGFAWIADLNDVGPEMPSGVGAVPLNIVNGVRTSSAVGYLMPALGRPNLTLLARTRAVRLRFSATTAVGVDAIGPGGPVSLSADRIVLCAGAIQSAHLLMLSGVGEEEVLRSAGVKVLMALPVGMGCSDHPEWVMPTNWAVAVDRPVLEVLLSTHDGIEIRPYTGGFVAMTGDGTAGHRDWPHIGVALMQPRARGRITLVSSDPQIPVRIEHRYDSEPADVAALRQGSALAHELCGAATRIGPAVWATSQHLCGSAPMGTDDDPRAVVDPRCRVRGIENLWVIDGSVLPSITSRGPHATIVMLGHRAAEFVQEGHHHHHH”, the “soluble on expression in E. coli” value was “soluble”.

In the case of “MGSDKIHHHHHHMLMESVVSVFDPDLTHLPAVAHRLQFSDPESEVPLHVHRKGQLILALHGAVTCTAGNEIWIVPPNCGVWIPGGVPHSARATANAQLNYLFVEPEAANLPGSSCTLAISPLIREMVERLAEERADYLADSHAARIARVLLDELADMPRERFNLPISSHPKIRAIADALTAEPSDRRTLSDWAKQVAMSERSLARLLIRETGLTFGRWRQQLHLVVALRELASGEAVQNVAAGLGYESVNAFITMFKKALGSTPAQYFAQRHAPTKAGSGEQNRV”, the “soluble on expression in E. coli” value is recorded as “not soluble”.

Take “MALIEKNTQFDADKLTANVVGIAADVGKHDSGMHQHHKGQLLYAPQGCMTFALNDSICILPPTKAVWIPPHTPHRAVMTNVVAYRSVYFDCDKFSCPKSIVMIEVNDLLKALINKMALWEWDIEQTKTNATTILFWEEFYQAKQFELTLPLPSDRRLASFRNAMTKDGFIAPD”: the “soluble on expression in E. coli” value is on record as “not soluble”.

For “MTYWICITNRENWEVIKRHNVWGVPKKHKNTLSRVKPGDKLVIYVRQEKDKEGNLLEPKIVGIYEVTSEPYVDFSRIFKPHRGGKETYPYRVKIKPIKIGEINFKPLINDLKFIKNKKRWSMHFFGKAMRELPEEDYKLIEKLLL”, the “soluble on expression in E. coli” value is listed as “soluble”.

As to “MVLDRQHLGVTKSRCIVWGVAFLSDGTVISVDSVGKVQLWDSATGTLVKSHLVANADVQSIAVADQEDSFVVGTAEGTVFHFQLVSMTSNSSEKQWVRTKPFQHHTHDVRAVAHSPTALISGGTDTHLVIRPLMERVEVKNYDAALRKITFPHRRLISCSKRRQLLLFQFAHHLELWRLGSTSATGKNGDTLPLSKNADHLLHLKTKGPENIICSCVSPCGSWIAYSTASRFFLYRLKYERDNISLQRVSKLPSFLRSALHILFSEDSTKLLVASNQGSLHIVHLSEGSFKHLHTFQPQSGTVEAMCLLAVSPDGNWLAASGTSAGVHVYDLHHLKLHCTVPAYNFPVTALAIAPNTNNLVIAHSDQQVFEFSIPEKQYTEWSRSLQKQGFHQLWLQRDTPITHISFHPKRPMHILLHDAYMFCIIDKSLPLPNEKTVLYNPLPPKNESDVFLRRTTHGFKMSKIYKPLLFMDLLDERTLVAVERPLDDIIAQLPPPIKKKKFGT”, the “soluble on expression in E. coli” value is on record as “not soluble”.

With “GPGSMGAVKFQLYKTLGVPMKSSIKDITRAYRHLALKYHPDRNPEGVEKFKSISNAYAVLSDPERRAAYDLTGFLSDSADSSHAMSDEAARQQRSAELADQVRTFFATYAGSAEERLDVVRGYEKCRGDFKKMVREYLLFDNGVEAEVQRLHRLVSTLIELGNLSPTPAWKSTSTPEALLRLEKAMHRERQEAENVLKDMAGSGTGAAGAADGDLSSLQVMIRQRQQSSYESMLNHLESKYVTKKSNARESSKRTREAAPTARKDECASKKHRKASHHR”, the “soluble on expression in E. coli” value was “soluble”.

For “AIAEEWDVPQMKKEVESLKYQLAFQREMASKTIPELLKWIEDGIPKDPFLNPDLMKNNPWVEKGKCTIL”, the “soluble on expression in E. coli” value is given as “soluble”.

As to “MGSDKIHHHHHHLEISLNEIIDYYAKADVSFVGAFGERVSPQLKVLDRHTNPAGGGLVIPFSGSACFTFDGKPYVIEPGMVVHAGPGMRLSKEVIGDREWEYAVIHYHIPQHERDEYPLFHKDFSLAHGRSAKVPHLVRQILDIQSIPGAAAKFQTKVLFLSLLQEIFTAACGQPGQENSKLIEEAMGYIRLNYADELTVQKVADEFSVERRQFSYLFKRHTGMSPIHYLIECRISKAKELLGSPGCSVKQVAEWVGYTDSLYFSKAFKKYTGVSPSEYREGFAL”, the “soluble on expression in E. coli” value is recorded as “not soluble”.

In the case of “GNMDSKAVEELSATECHQWYKKFMTECPSGQLTLYEFKQFFGLKNLSPSANKYVEQMFETFDFNKDGYIDFMEYVAALSLVLKGKVDQKLRWYFKLYDVDGNGCIDRGELLNIIKAIRAINRCNEAMTAEEFTNMVFDKIDINGDGELSLEEFMEGVQKDEVLLDILTRSLDLTHIVKLIQNDGKNPHAPEEAEEAAQ”, the “soluble on expression in E. coli” value is given as “soluble”.

As to “MCKLAGPQHSEIGFPISTDNASWRGPNIEAGGKSAYNNVQVGE”, the “soluble on expression in E. coli” value was “not soluble”.

For the sequence “KSYASTPELRKTWLDSMARIHVKNGDLSEAAMCYVHVTALVAEYLTRKGVFRQGCTAFRVITPNIDEEASMMEDVGMQDVHFNEDVLMELLEQCADGLWKAERYELIADIYKLIIPIYEKRRDFERLAHLYDTLHRAYSKVTEVMHSGRRLLGTYFRVAFFGQGFFEDEDGKEYIYKEPKLTPLSEISQRLLKLYSDKFGSENVKMIQDSGKVNPKDLDSKYAYIQVTHVIPFFDEKELQERKTEFERSHNIRRFMFEMPFTQTGKRQGGVEEQCKRRTILTAIHCFPYVKKRIPVMYQHHTDLNPIEVAIDEMSKKVAELRQLCSSAEVDMIKLQLKLQGSVSVQVNAGPLAYARAFLDDTNTKRYPDNKVKLLKEVFRQFVEACGQALAVNERLIKEDQLEYQEEMKANYREMAKELSEIMHEQLG”, the “soluble on expression in E. coli” value is recorded as “soluble”.

For the sequence “MKQSIVSLAQVIRSKNAGPYELVLDILFKTKENYERVKSSGQLTPELIARLYHVEPDFIHRIVWFDPSNAVKIVMPRDIISGNVGDNDVYGAQQHAPLLNMSFDL”, the “soluble on expression in E. coli” value was “soluble”.

Take “MGSDKIHHHHHHSTVAIALDCKGLGSPIPGTAPLCKDLTLMATGNKPSAAFVKNTRAAYGSVLQGYHNQVKPHVAPVQAAVSKKWKQFAKSDVGGKVEKIAMNIHAWIVDKWVKIQRFVQQTWNNVAAWWKKNGQKQFGPALEGFVLGVKMVFQVVADALRSVGALLVHFFARAKTFFVAFADGGFNAAMNTLNH”: the “soluble on expression in E. coli” value is “not soluble”.

For the origin of these results see the DeepSol protein solubility set.
